Measured values reported in the Human Domainome abundance scans (Beltran et al. 2025).
± gives the uncertainty stated by the source.

B1: Membrane-associated guanylate kinase, WW and PDZ domain-containing protein 2, residues 601 to 682; numbered along this chain, Q86UL8 (parent)
chain: AELMTLTIVKGAQGFGFTIADSPTGQRVKQILDIQGCPGLCEGDLIVEINQQNVQNLSHTEVVDILKDCPIGSETSLIIHRG

Variants of: B1
Experiment: abundance fitness (aPCA) (normalised: wild type 0, dead -1); higher = more abundant; growth selection in yeast, the domain comes from the species named
Settings: Homo sapiens

Variant	abundance fitness
G25E	-0.127 ± 0.061
E74I	-0.214 ± 0.16
N53Y	-0.064 ± 0.038
L6Y	-0.064 ± 0.078
I49L	0.011 ± 0.087
L3C	-0.095 ± 0.047
S76C	0.016 ± 0.12
C69N	-0.195 ± 0.16
L32N	-0.124 ± 0.29
Q26D	-0.176 ± 0.13
T18M	-0.061 ± 0.052
H80W	-0.079 ± 0.16
D33G	-0.11 ± 0.04
L45G	-0.096 ± 0.34
K29A	-0.095 ± 0.1
G72F	-0.353 ± 0.16
A12W	-0.057 ± 0.052
D33K	-0.192 ± 0.084
D68A	-0.14 ± 0.15
D21C	-0.14 ± 0.1
K29Q	-0.053 ± 0.13
T60D	-0.136 ± 0.12
Q30A	-0.052 ± 0.17
T5E	-0.092 ± 0.054

Variant	abundance fitness
G43F	-0.275 ± 0.17
T5S	0.02 ± 0.042
Q26P	0.045 ± 0.088
G25Y	-0.177 ± 0.1
F17C	-0.303 ± 0.047
G39E	-0.255 ± 0.14
G11N	0.017 ± 0.098
N50H	0.024 ± 0.13
Q55K	-0.276 ± 0.18
T24E	0.024 ± 0.046
S73M	-0.004 ± 0.14
V63S	-0.099 ± 0.13
E61S	-0.2 ± 0.12
G16K	-0.029 ± 0.035
D64N	-0.067 ± 0.3
G11T	-0.015 ± 0.052
I34G	-0.021 ± 0.05
I79G	-0.42 ± 0.11
Q55N	0.039 ± 0.32
N56L	-0.051 ± 0.069
S58Y	-0.226 ± 0.26
V9Q	-0.071 ± 0.05
G82D	0.009 ± 0.11
K10S	-0.143 ± 0.037

Variant	abundance fitness
G16F	-0.101 ± 0.063
L66G	-0.673 ± 0.28
L3E	0.038 ± 0.039
Q13K	-0.06 ± 0.039
G11Y	-0.124 ± 0.082
G11P	0.03 ± 0.056
Q30S	-0.076 ± 0.098
T7A	-0.008 ± 0.035
A12M	-0.034 ± 0.052
I65P	-1.32 ± 0.22
L32K	-0.295 ± 0.12
T5G	-0.121 ± 0.042
Q26E	0.016 ± 0.055
I8C	-0.008 ± 0.051
M4S	-0.097 ± 0.033
T60C	0.17 ± 0.15
S73W	-0.06 ± 0.091
I71P	-0.052 ± 0.11
E61I	-0.409 ± 0.32
K67F	-0.062 ± 0.31
Q13D	-0.062 ± 0.047
T5W	-0.208 ± 0.051
E48D	-0.444 ± 0.23
L3V	-0.032 ± 0.031

Variant	abundance fitness
D64K	0.011 ± 0.16
A20I	0.203 ± 0.27
N53A	-0.097 ± 0.034
T60W	-0.075 ± 0.12
P38T	-0.038 ± 0.096
Q51W	-0.09 ± 0.055
Q55F	0.043 ± 0.45
L77P	-0.86 ± 0.24
G72A	0.002 ± 0.061
D68I	-0.271 ± 0.18
F15P	-0.063 ± 0.041
Q26L	-0.028 ± 0.041
D68Y	0.011 ± 0.24
C41I	0.057 ± 0.062
Q26R	-0.032 ± 0.039
S76D	-0.124 ± 0.098
D64S	0.013 ± 0.085
E74M	0.062 ± 0.15
I78R	0.033 ± 0.071
V47I	-0.165 ± 0.11
D44Q	-0.567 ± 0.16
I78Q	-0.23 ± 0.14
T75V	0.013 ± 0.091
V63E	-0.028 ± 0.12

Variant	abundance fitness
F17R	-1.12 ± 0.091
E74V	-0.122 ± 0.12
T5R	-0.167 ± 0.036
L32P	-0.119 ± 0.13
T18W	-0.075 ± 0.04
P70Q	-0.084 ± 0.13
I19Q	-0.708 ± 0.32
N53M	-0.043 ± 0.05
D21N	-0.105 ± 0.45
P70H	-0.107 ± 0.11
D68C	-0.101 ± 0.14
C41G	-0.046 ± 0.03
I34V	0.017 ± 0.059
D68F	-0.304 ± 0.5
Q55I	-0.02 ± 0.12
C41H	0.144 ± 0.084
L3I	0.014 ± 0.06
V62R	-0.91 ± 0.14
T75A	0.101 ± 0.079
T75M	0.047 ± 0.11
I19T	-0.169 ± 0.12
L66T	-0.589 ± 0.47
G25N	-0.162 ± 0.079
L66C	-0.398 ± 0.15

Variant	abundance fitness
T5L	-0.101 ± 0.039
T18D	-0.011 ± 0.064
G11I	-0.116 ± 0.062
M4Y	-0.022 ± 0.062
P23K	0.023 ± 0.049
G72P	0.022 ± 0.12
S76N	-0.003 ± 0.2
N50W	-0.433 ± 0.15
V62W	-1.03 ± 0.4
T24L	-0.023 ± 0.041
H80V	-0.231 ± 0.098
R81Q	-0.051 ± 0.16
T75K	-0.133 ± 0.11
Q52D	0.027 ± 0.061
C69K	0.108 ± 0.14
Q51H	-0.016 ± 0.041
E42S	-0.049 ± 0.057
G11E	-0.118 ± 0.057
H59L	-0.01 ± 0.065
T18L	0.01 ± 0.038
L77G	-1.02 ± 0.15
G43E	0.059 ± 0.2
E2A	-0.032 ± 0.034
I31V	-0.035 ± 0.084

Variant	abundance fitness
Q51V	-0.088 ± 0.042
S58E	-0.065 ± 0.092
K10P	-0.146 ± 0.045
I79W	-0.467 ± 0.17
Q13E	0.016 ± 0.046
E61W	-0.374 ± 0.21
G82S	-0.09 ± 0.076
I49P	-1.01 ± 0.36
S58G	0.015 ± 0.1
G36H	-0.126 ± 0.32
C41K	-0.036 ± 0.056
L57K	-0.108 ± 0.15
E2K	-0.093 ± 0.046
N50T	-0.455 ± 0.15
L6Q	-0.083 ± 0.053
L40G	-0.752 ± 0.13
T60P	-0.198 ± 0.15
I78L	-0.053 ± 0.097
S73A	0.021 ± 0.065
G43H	0.004 ± 0.39
G39L	-0.22 ± 0.14
F17G	-1.11 ± 0.089
T5H	-0.139 ± 0.067
